Laboratory results published in the supplement of paper PMC12042874.
± gives the uncertainty stated by the source.

Experiment: amyloid nucleation score (Sup35N fusion, yeast selection) (log enrichment); library NNK3; higher = more nucleation; inactive = no reads after selection
Summary of the method: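 Psi-negative yeast expressed Sup35N fused to peptides of 20 random codons. They were induced 24 hours with 100 μM copper sulfate, grown 7 days at 30°C without adenine and uracil, and their plasmid inserts from input and output were Illumina-sequenced. The nucleation score is the DiMSum log enrichment of output over input reads, centred on the mode score of non-aggregating sequences. Sequences with under 100 input reads were excluded.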

Substance | amyloid nucleation score
CSIHL | inactive
ELIAIRRSNFHKKFLLNLYC | inactive
IDSDMDKNS | inactive
MLLFHLVVQLNDLLSAPLRA | inactive
SNCRNQFRERVLIAGVLWVV | inactive
ELISGLLRVGLDLKKAVSFD | inactive
WLVYVVLRM | inactive
QTDMWIDTWKVQPVWIEDEG | inactive
FLHILGHVNLFTSLREDLSL | inactive
YKGFKRIGLEGQFVSSYLFY | inactive
INTGQMQSAYETNLVMRKLA | inactive
SMRSRCNFFTVCSAWLSFWE | inactive
SKFFLPQTEFPQKGLTPITA | inactive
GTGEGNDLCARQNPLHQRII | inactive
SITWET | inactive
KRWTQINYFDWRLLRFATRS | inactive
DFFNWWSSVWFYLLMGRKVE | inactive
SVKVPWWDCINVRAHMWRMV | inactive
KRLTMDLFDNCPMLYECEFT | inactive
LFRGRCAPLFSQSVA | inactive
RMVRIALTL | inactive
IHLGMWIRKQFY | 0.985 ± 0.15
EMSAMRCILLMRVDPICSLS | inactive
DNFVEDFLTMASGNIRC | inactive

Substance | amyloid nucleation score
LILAMSRLALWSL | inactive
GFGDRMDNPSVVSK | inactive
CAWVDRYYKKVIGANRGSLS | inactive
NISLLWDGAFCIYVCLLWRG | -0.438 ± 0.9
RLVVVYLGTNSTSKEDISC | 0.332 ± 0.23
SLILERFNRHCVWGVSVKKH | inactive
LLVANG | inactive
VRRHAF | inactive
ELLWNLRGNFDIDLGSFIRT | inactive
CFPTTSK | inactive
SISIFHNCF | 2.66 ± 0.063
HLLYYVCRHQQFLWMDVQVE | inactive
NYKRTLEESN | 1.17 ± 0.18
FWDTKFEFFQLHRVWIPLLV | inactive
SVGVFVYLKLINLIVLGGRG | inactive
STQNGYRQNEFSRSRMMAPD | inactive
CRTSHSWVMYWLRREMCY | inactive
ILLLRGDGEACFNRVNDNSF | inactive
ILSNINFVRNSFCYYMINFI | inactive
CMCRLEGRTSDLCQESGSCC | -1.13 ± 1.5
SLFGVNGMSAPGRRDV | 0.589 ± 0.31
LFCCPDLFRRG | 2.4 ± 0.09
WIFRFAYVVHDAWFSENRYP | inactive
LWTYIWDRFEDPVECLRWWN | inactive

Substance | amyloid nucleation score
LSYLFFKPFWA | 0.357 ± 0.74
GRRYVLEENSVIISWCVIYY | inactive
LSIVITRYDMSCSAETMFNL | inactive
SMCGYWRHI | inactive
PAADHLAKRCSMICSSSFAL | inactive
LVLWMVDTSFAGSVDVSEMA | inactive
GPTLSGLNIAHWSNIYQDLG | inactive
HKNVCRIQRR | inactive
SWVRMYIGEFLVSRCQMWST | inactive
YLIGRGVMVFNFPWLLHHTN | 1.58 ± 0.1
FPSIYLMSD | inactive
LDWDFGHDRVRFPERHT | inactive
VKISYDKSRHVCLCGFSSM | 2.37 ± 0.077
LRTLSGNICANL | inactive
PFSYDLRNFNSWQIGNGGLM | inactive
KLHPTYLCNQNPRELWLITY | inactive
NRAVHKSRWHRMRTFKDERR | inactive
LSGANYLLIRNEGM | inactive
RRMLIGFHVFSYYWDNEYTR | 0.611 ± 0.14
LAEGYVSVIRIYKRGWNEDV | inactive
VIHSLLALTDLMSKSYLTIY | inactive
MRLYLFSRYPLARTTFMSTC | inactive
PQLCESLELSEKRRTEDLVG | inactive
KFVLETFCHSKPRLVLVNHD | inactive

Substance | amyloid nucleation score
NAFDFSL | inactive
NVYMRSYKIRSCMTFRTLAL | inactive
GLLFYYMILLGELLQR | inactive
VLCVETTCPVGDIMECCLLP | inactive
RMSLNFNSQPRSLVMGNKYS | inactive
MAMLS | inactive
SRWPGHNYISQYGGYLLIFY | 2.02 ± 0.071
HCHCIVEYQFFSVHLIRTYE | inactive
IKFIPYYCYPCRLIRLRVKC | inactive
YTLPGIQAGFWARCVSHTRL | inactive
VMYWLYRINDSSQSFFSYFS | inactive
SFPLPS | inactive
SNFLLSSLIHLVPMMSL | inactive
RNMGYVTDNYLYTVLYYDCY | inactive
LYLRV | inactive
MTCTVRSEVYIHFNFVAIKF | 0.299 ± 0.33
YSSQLILTYDTRL | inactive
IVRHVVYVSCGIQYCDHFWH | inactive
IRSSREFYMSVYRTEAWVLE | inactive
YGSMMHWKSLCLSSIC | inactive
CALGEKLFSGSAYMVYPG | inactive
HSYTVWLVNMS | 2.35 ± 0.077
LLHTTLA | inactive
NEIMVTLHNV | inactive

Substance | amyloid nucleation score
TDFFG | inactive
VYSFTAKHRYSWFVCNDGVK | inactive
VEMGDSVRSRGYSISVFLRK | inactive
RFRSRS | -0.02 ± 1.1
FVLVN | inactive
PRHWFREFMGMVMI | 0.317 ± 0.51
VIMRMFSFARLFVGSYPFRV | inactive
SSNLNRFSITVFVVERHHQF | inactive
KTASRCLYCLMKKKDCLPRV | inactive
SGTSFISTKFSISLSIWLTA | inactive
KCAQEYGEVLS | -0.591 ± 0.8
GCHLFHWFIFAYCYHYEGTN | 1.91 ± 0.09
GKTSGCWSFFYILIS | -0.388 ± 0.75
AYIFIWWKGANKFVSFNKII | 0.684 ± 0.27
FGEMRFCFCAG | inactive
KTIFSDVFYLRALWCSLNRG | inactive
RTLAVSIRNQWPYIGLARDT | inactive
WLFRRVGMVTHAWMYWFKSR | inactive
HNPLVRFAQHLLITEDQCMN | inactive
GKSSKDLHIFIMIRVWHYLT | inactive
CHYFNNLACYGSRIEMT | inactive
